Measurements taken from patent US20170122964.

System: nucleosome on the remodeling DNA template with Atto 647N labeled histone H2B

ACF remodeling complex
FRET signal (nucleosome sliding assay): Nucleosome on the remodeling DNA template shows FRET signal, which is reduced over time by the remodeling complex.
